What was measured:
Experiment in all cases: SPR; Biacore T200; […] (0.01 M HEPES, 0.15 M NaCl, 3 mM EDTA, 0.05% surfactant P20, […]
[1] = target: SARS-CoV-2 spike protein RBD, Alpha variant, sfGFP fusion (SARS-CoV-2) (UniProt P0DTC2)
[2] = target: SARS-CoV-2 spike protein RBD, Omicron variant, sfGFP fusion (SARS-CoV-2) (UniProt P0DTC2)
[3] = target: SARS-CoV-2 spike protein RBD, Delta variant, sfGFP fusion (SARS-CoV-2) (UniProt P0DTC2)

With Jacalin (natural protein) the Kd [1] was 320 nM, the Kd [2] was 478 nM and the Kd [3] was 339 nM.
Work on “Recombinant Microcystis viridis NIES-102 lectin (rMVL) (from UniProt Q9RHG4 1-114) (natural protein)” yielded a Kd [2] of 2730 nM.
